Assay results reported in the nanobody polyreactivity screen of Harvey et al. (2022).

Assay: yeast display, Sf9 membrane polyspecificity reagent, FACS + sequencing; frameworks hold sequencing errors
Method in brief: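 Using colony PCR, genes from sorted yeast display clones were amplified, then sequenced on MiSeq at 2 × 250 and filtered by CDR length. The clones had been stained with 10% biotinylated, detergent-solubilized Sf9 membrane reagent for 1 hour at 4 °C and sorted by FACS into low and high (top ~1%) gates on anti-HA and streptavidin fluorescence. Polyreactivity labels come from the gate of origin.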

Row | Sequence | polyreactivity (PSR sort gate)
1 | QVHLVESGGGLVQAGGSLRLSCAASGFPFGSYAMGWDRPAPGKERELVSGISRGGSTNYADSVKGRFTISRDNAKNTVYLQMNSLKPEDTAVYYCAARAVFVADTGATPAGYDYWGQGTQVTVSS | low polyreactivity
2 | QVHLVESGGGLVQAGGSLRLSCAASGFTFDYYTMGWYRPAPGKERELVAAITSSAGSTDYADSVKGRFTISRDNAKNTVYLQMNSLKPEDTAVYYCNADFLYGTYDYWGQGTQVTVSS | low polyreactivity
3 | QVHLVESGGGLVQAGGSLRLSCAASGFTFIRNGMGSYRQAPGKERELVAAINSRGGNTYYADSVKGRFTISRDNAKNTVYLQMNSLKPEDTAVYYCNRVVQRWSTQYGYWGQGTQVTVSS | high polyreactivity
4 | QVHLVESGGGLVQAGGSLRLSCAASGFTFRRYAMGWYRQAPGKERELVAAISYGGGRTYYADSVKGRFTISRDNAKNTVYLQMNSLKPEDTAVYYCAADVQSRYVGEGDYWGQGTQVTVSS | high polyreactivity
5 | QVHLVESGGGLVQAGGSLRLSCAASGFTFRYYGMGRYRQAPGKERELVAAISRGGSTNYADSVKGRFTISRDNAKNTVYLQMTSLKPEDTAVYYFAKAGLTYRALRYYWGQGTQVTVSS | high polyreactivity
6 | QVHLVESGGGLVQAGGSLRLSCAASGFTFSTYTMGWYRQSPGKERELVAAIRRSGDSTYYADSVKGRFTISRDNAKNTVYLQMNSLKPVDTAVYYCNAVLYRFERFDYWGQGTQVTVSS | high polyreactivity
7 | QVHLVESGGGLVQAGGSLRLSCAASGFTFVFYTMGWYRPAPGKERELVAAISHTGDSTYYADSVKGRFTISRDNAKNTVYFQMNSLKPEDTAVYYCATDLYTADPDPSPTYKFEYWGQGTQVTVSS | low polyreactivity
8 | QVHLVESGGGLVQAGGSLRLSCAASGFTFYKYVMGWYRQAPGKERELVAAITTSGGSTYYADSVKGRFTISRDNAKNTVYLQMNSLKPEDTAVYYCNARSLHTSEGDYWGQGTQVTVSS | low polyreactivity
9 | QVHLVESGGGLVQAGGSLRLSCAASGFTFYSYAMGWYRPPPGKEREFVAAITIGGGSTNYADSVKGRFTISRDIAKNTVYLQMNSLKPEDTAVYYCNVDYTLHFGYWGQGTQVTVSS | low polyreactivity
10 | QVHLVESGGGLVQAGGSLRLSCAASGFTIDYYAMAWYRQAPGKERELDAAISRAGSTNYADSVKGRFTISRDNAKNTVYLQMNSLKPEDTAVYYCNKGYHSWSRLSQFGWSYDYWGQGTQVTVSS | high polyreactivity
11 | QVHLVESGGGLVQAGGSLRLSCAASGGIFYINSMGWYRQAPGKERELVAAITGGASTYYADSVKGRFTISRDNAKNTVYLQMNSLNPEDTAVYYCAARPSSRRVYPAYLYGYWGQGTQVSVSS | high polyreactivity
12 | QVHLVESGGGLVQAGGSLRLSCAASGGTIAFNGMGWYRQAPGKDRELVAAITWRSGSTYYADSVKGRFTISRDNPKNPVYLQMNSLKPDDTAVYYCNAARAVYTQKRFDSWGQGTQVTVSS | high polyreactivity
13 | QVHLVESGGGLVQAGGSLRLSCAASGIIFRRYAMGWYRQAPGKERELVAAISSRGGSTYYADSVKRRFTISRDNAKNTVYLQMNSLKPEDTAVYYCAKGFSGTGGSGDFGYWGQGTQVTVSS | high polyreactivity
14 | QVHLVESGGGLVQAGGSLRLSCAASGITFEGYAMGWYRQAPGKERELVAAIRSSGTSTYYADSVKGRFTISRDNAKNTVYLQMNSLKPEDTAVYYCNRARSSSRYDYWGQGTQVTVSS | low polyreactivity
15 | QVHLVESGGGLVQAGGSLRLSCAASGITFLKYAMGWYRQAPGKERELVARITSGGRTYYADSVKGRFTISRDNAKNTVYLLMNSLKPEDTAVYYCNAVKSYASLYAGFYYWGQGTHVTVSS | high polyreactivity
16 | QVHLVESGGGLVQAGGSLRLSCAASGITFYRYAMGWYRLAPGTERELVAAISSSGGSTYYADSVKGRFTISRDNAKNTVYLQMNSLKPEDTAVYYCAAQYNVPRDKYYFWGQGTQVTVSS | high polyreactivity
17 | QVHLVESGGGLVQAGGSLRLSCAASGLTFHVYAMGWYRQAPGKERELVAAISWSGGSTYYADSVKGRFTISRDNAKNTVYLQMNSLKPEDTAVYYCAAESLSQGIWYDYWGQGTQVTVSS | high polyreactivity
18 | QVHLVESGGGLVQAGGSLRLSCAASGNTFGRYAMGWYRQAPGKEREFVAAIRWRGATTYYADSVKGRFTISRDNAKNTVDLQMNSLKPEDTAVYYCAAYYWGQGTGFDYWGQGTQVTVSS | high polyreactivity
19 | QVHLVESGGGLVQAGGSLRLSCAASGRIFAGYARGWYRQAPGKERELVAAISDGGTTNYADSVKGRFTISRDNAKNTVYLQMNSLKPEDTAVYYGAKDAAESYRYGYWGQGTQVSVSS | low polyreactivity
20 | QVHLVESGGGLVQAGGSLRLSCAASGRIFAYNAMGWYRQAPGKERELVAAITSRGTSTYYADSVKGRFTISRDNAKNTVYLQMNSLKQEDTAVYYCNADYNRNSVQVSLYDYWGQGTQVTVSS | low polyreactivity
21 | QVHLVESGGGLVQAGGSLRLSCAASGRIFGAYTMGWYRQAPGKERELVAAIAGRTYYADSVKGRFTISRDNAKYTVYLQMNSLKPEETAVYYFADRYKSRNYDYWGQGTQVTVSS | high polyreactivity
22 | QVHLVESGGGLVQAGGSLRLSCAASGRIFKTYAMRWYRQAPGKERELVAAITASGGRTYDADSVKGRFTISRDNAKNTVYLQMNSLTPEDSAVYYCAAPLLRDLRSPYYYNYWGQGTQVTVSS | low polyreactivity

Row | Sequence | polyreactivity (PSR sort gate)
23 | QVHLVESGGGLVQAGGSLRLSCAASGRIFRRNTMGWYRQAPGKERELVAAITSSGGSTYADSVKGRFTISRDNAKNTVYLQMNSLKPEDTAVYYCATYVAYHRGYRTYDHWGQGTQVTVSS | low polyreactivity
24 | QVHLVESGGGLVQAGGSLRLSCAASGRIFRRYAMGWSRQAPGKERELVAAISSGGSTYYADSVKGRFTISRDNAKNTVYLQMNSLKPEDTAVYYCNAKVGAYLNYGYWGQGTQVTVSS | low polyreactivity
25 | QVHLVESGGGLVQAGGSLRLSCAASGRIFRYYAIGWYRQAPGKERELVAAITWRGDSTYYADSVKGRFTISRDNAKNTVYLQMNSLKPEDTAVYYCNKRWTDKYDSWGQGTQVTVSS | high polyreactivity
26 | QVHLVESGGGLVQAGGSLRLSCAASGRIFSGYAMGWYRQAPGKERELVAAITSGASTNYADSVNGRFTISRDNPKITVYLQLNSLKPVVTAFYYCAATFHSWRGQYLWYDYWGQGTQVTVSS | low polyreactivity
27 | QVHLVESGGGLVQAGGSLRLSCAASGRIFSSNAMGWYRQAPGKERELVAAISWIVGRTYYADSVKGRFTISRDNAKNTVYLQMNRLKPEDTAVYYCAKGSYYGRKRGWGYYYWGQGTQVTVSS | high polyreactivity
28 | QVHLVESGGGLVQAGGSLRLSCAASGRIFTRNAMVWYRQAPGKERELVAAISHSGGSTYADSVKGRFTISRDNAKNTVYLQMNSLKPEDTAVYYCAAKYYFEWNSALDYWGQGTQVTVSS | low polyreactivity
29 | QVHLVESGGGLVQAGGSLRLSCAASGRIFVTYAMGWYRQAPGKERELVAAIPWDGDSTYYADSVKGRFTFSRDNAKNTVYLQMNSLKREDTAVYYCNAKKFNSHVELGYDYWGQGTQVTVSS | low polyreactivity
30 | QVHLVESGGGLVQAGGSLRLSCAASGRIFYSHAMGWYRQAPGKEREFVAAISWSGGGTYYADSVKGRFTISRDNAKNTVYLQMNSLKPQDTAVYYCAARFRYYGSEYDYWGQGTKVTVSS | low polyreactivity
31 | QVHLVESGGGLVQAGGSLRLSCAASGRIIRYNAMGWYRQAPGKERELDAAITRSGGSTYYADSVKGRFTISRDNAKNTVYLQMNSLKPEDTGVYYCAKVQNGQWSTSGVPGDYQYNYWGQATQVTVSS | high polyreactivity
32 | QVHLVESGGGLVQAGGSLRLSCAASGRNFSSYAMGWYRQAPGKEWELVAAIRRGGGSTSYADSVKGRFTISRDNAKKTVYLQMNSLKPEDTAVYYCAADSPRGQVHYIGGYWGHGTQVTVSS | low polyreactivity
33 | QVHLVESGGGLVQAGGSLRLSCAASGRTFATNTMGWYRQAPGKEREFVAAISRGGVSTSYADSVKGRFTISRDNAKNTVYLQMNSLKPEDTAVYYCAAKHYGFNRNHRHSYDYWGQGTQVTVSS | high polyreactivity
34 | QVHLVESGGGLVQAGGSLRLSCAASGRTFDRYDMGWYRQAPGKEWELVATISSSGGSTYYADSVKGRFTISRDNEKNTVYLQMNSLKPEDTAVYYCAADPSGDYWGQGTQVTVSS | low polyreactivity
35 | QVHLVESGGGLVQAGGSLRLSCAASGRTFINYAMGWYRQAPGKERELVAAITTGGRTNYADSVKGRFTISRDNAKNTVYLQMNSLKPEDTAVYYCAADRYYWGRYTLNYWGQGTQVTVSS | low polyreactivity
36 | QVHLVESGGGLVQAGGSLRLSCAASGRTFIRYTMGWYRQAPGKEREFVAAINTSGGRTYYADSVKGRFTISRDNAKNTVYLQMNSLKPEDTAVYYCAAGYSASRKVDYWGQGTQVTVSS | high polyreactivity
37 | QVHLVESGGGLVQAGGSLRLSCAASGRTFPSYAMGWYRQAPGKERELVAAISSSGGSTYYADSVKGRFTISRDNAKNTVYLQMNSLKPEDTAVYYCAAATPSGYYYWGQGTQVTVSS | high polyreactivity
38 | QVHLVESGGGLVQAGGSLRLSCAASGRTFREYFMGWYRQAPGQERELVAVISWSTGSTYADSVKGRFTISRDNAKNTVYLQMNSLKPEDTAVYYCARRVQSLRNVVIYNYWGQGTQVTVSS | low polyreactivity
39 | QVHLVESGGGLVQAGGSLRLSCAASGRTFRKYAMGWYRQAPGKERELVAAISSSGGRTYYADSVKGRFTISRDNAKNTVYLQMNSLKPEDTAVYYCAAKQGNRNSYKYDYWGQGTQVTVSS | high polyreactivity
40 | QVHLVESGGGLVQAGGSLRLSCAASGRTFRYYAMGWYRPAPGKERELVAAISSSGDRTYYADSVKGRFTISRDNAKNTVYLQMNSLKPEDTSVYYCAADRGARGDYYWGQGTQVTVSS | high polyreactivity
41 | QVHLVESGGGLVQAGGSLRLSCAASGRTFRYYAMGWYRQAPGKERELVASISSTGGNTYYADSVKGRFTISRDNAKNTVYLQMNSLKPEDTAVYYCAAGAWTRGQYYYWGQGTQVTVSS | high polyreactivity
42 | QVHLVESGGGLVQAGGSLRLSCAASGRTFWSYAMGWYRQAPGKERELVAAISWRSGTTYYADSVKGRFTISRDNAKNTVYLQMNSLKPEDTAVYYCNAHSNYRGDYWGQGTQVTVSS | high polyreactivity
43 | QVHLVESGGGLVQAGGSLRLSCAASGRTFWVYAMGWYRQAPGKERQLVAAINRRGGGTYYADSVKGRFTISRDNAKNTVYLQMNTLKPEDTAVYYCAAVSTRVRVNYDSWGQGTQVTVSS | high polyreactivity
